# Test results: US20260009052, “CAS12 PROTEINS AND USES THEREOF” (GUANGZHOU REFORGENE MEDICINE CO., LTD., published 2026)
# T1: C12-279 (synthetic construct)
# T1 chain: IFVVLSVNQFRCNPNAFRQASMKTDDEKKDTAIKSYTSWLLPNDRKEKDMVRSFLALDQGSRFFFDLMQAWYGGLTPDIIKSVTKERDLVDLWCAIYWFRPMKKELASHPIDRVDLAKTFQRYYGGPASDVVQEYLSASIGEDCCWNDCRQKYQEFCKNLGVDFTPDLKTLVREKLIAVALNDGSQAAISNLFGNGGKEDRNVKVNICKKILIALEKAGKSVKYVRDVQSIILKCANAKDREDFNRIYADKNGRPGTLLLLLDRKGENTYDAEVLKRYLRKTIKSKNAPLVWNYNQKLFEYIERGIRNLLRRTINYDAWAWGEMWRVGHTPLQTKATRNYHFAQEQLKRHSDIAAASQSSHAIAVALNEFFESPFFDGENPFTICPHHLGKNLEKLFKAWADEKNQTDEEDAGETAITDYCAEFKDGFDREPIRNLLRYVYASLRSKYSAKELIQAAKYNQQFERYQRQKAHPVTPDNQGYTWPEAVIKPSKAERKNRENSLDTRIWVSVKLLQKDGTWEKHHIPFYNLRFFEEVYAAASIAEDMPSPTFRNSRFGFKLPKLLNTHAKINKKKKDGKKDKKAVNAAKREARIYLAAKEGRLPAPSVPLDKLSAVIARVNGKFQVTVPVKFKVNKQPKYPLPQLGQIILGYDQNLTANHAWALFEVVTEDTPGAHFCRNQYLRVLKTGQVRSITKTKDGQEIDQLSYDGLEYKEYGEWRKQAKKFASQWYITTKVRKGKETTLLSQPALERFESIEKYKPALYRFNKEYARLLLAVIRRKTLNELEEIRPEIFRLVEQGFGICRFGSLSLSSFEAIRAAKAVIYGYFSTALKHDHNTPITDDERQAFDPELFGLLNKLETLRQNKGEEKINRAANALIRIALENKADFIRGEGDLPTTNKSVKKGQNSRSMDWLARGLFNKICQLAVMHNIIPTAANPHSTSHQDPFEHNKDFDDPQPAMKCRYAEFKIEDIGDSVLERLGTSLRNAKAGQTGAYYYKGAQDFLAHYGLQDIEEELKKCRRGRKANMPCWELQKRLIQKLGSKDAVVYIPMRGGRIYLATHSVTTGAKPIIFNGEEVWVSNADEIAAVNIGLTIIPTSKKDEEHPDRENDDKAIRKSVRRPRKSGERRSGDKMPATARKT
# T2: C12-279 G989R (synthetic construct, G989R)
# T2 chain: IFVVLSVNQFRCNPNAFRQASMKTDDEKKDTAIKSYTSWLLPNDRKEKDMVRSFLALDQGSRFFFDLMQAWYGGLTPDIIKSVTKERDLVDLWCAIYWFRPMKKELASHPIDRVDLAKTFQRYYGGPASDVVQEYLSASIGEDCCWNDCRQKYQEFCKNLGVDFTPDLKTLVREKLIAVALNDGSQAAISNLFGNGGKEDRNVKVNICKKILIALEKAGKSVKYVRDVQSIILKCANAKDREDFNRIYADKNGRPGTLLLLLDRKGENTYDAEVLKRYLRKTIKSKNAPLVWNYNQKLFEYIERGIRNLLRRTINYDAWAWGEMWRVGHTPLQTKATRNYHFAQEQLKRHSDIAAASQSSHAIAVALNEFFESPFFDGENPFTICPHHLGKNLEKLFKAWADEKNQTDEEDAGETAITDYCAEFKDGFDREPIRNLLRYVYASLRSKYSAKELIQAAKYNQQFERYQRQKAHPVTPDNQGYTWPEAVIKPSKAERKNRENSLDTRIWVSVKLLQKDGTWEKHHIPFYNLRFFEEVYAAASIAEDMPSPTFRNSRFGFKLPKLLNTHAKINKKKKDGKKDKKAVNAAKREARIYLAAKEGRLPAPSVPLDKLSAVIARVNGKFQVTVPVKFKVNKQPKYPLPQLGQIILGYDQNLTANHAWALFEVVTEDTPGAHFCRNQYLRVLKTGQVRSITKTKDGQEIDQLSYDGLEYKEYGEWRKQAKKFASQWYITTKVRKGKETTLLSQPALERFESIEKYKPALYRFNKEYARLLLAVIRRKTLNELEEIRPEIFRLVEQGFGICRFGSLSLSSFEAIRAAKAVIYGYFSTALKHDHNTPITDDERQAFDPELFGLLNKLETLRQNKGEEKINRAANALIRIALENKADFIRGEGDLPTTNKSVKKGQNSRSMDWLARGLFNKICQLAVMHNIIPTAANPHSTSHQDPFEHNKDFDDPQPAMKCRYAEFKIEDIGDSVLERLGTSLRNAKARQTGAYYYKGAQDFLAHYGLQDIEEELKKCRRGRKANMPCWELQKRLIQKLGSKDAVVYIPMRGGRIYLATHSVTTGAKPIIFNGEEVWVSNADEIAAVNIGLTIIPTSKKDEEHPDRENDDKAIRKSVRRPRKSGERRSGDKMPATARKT
# How the values were obtained:
# [1] = biological target: T1, C12-279; assay: cell_activity; PAM TTG; GFP reporter; conditions: tags: NLS
# [2] = biological target: T2, C12-279 G989R; assay: cell_activity; PAM TTG; +/-0.2
# Method: Transfection: transfection was performed 12-14 h after plating. 1.5 μL PEI (Yeasen Biotechnology, 40815ES03, Polyethylenimine Linear (PEI) MW25000) and 500 ng mutation clone plasmid were added to 100 μL Opti-MEM per well of the 24-well plate, mixed, and added to the NAAN cell line for cell transfection after placing at room temperature for 20 min. After overnight transfection, a fresh culture medium was replaced, and the culture was continued for 72 h, followed by flow cytometry. Editing efficiencies of different mutant clones were characterized by the proportion of GFP-positive cells.
# Editing efficiency of some selected mutants was tested in Reporter3 cell line using the same manner as described for the NAAN reporter system, except that the cell line was changed from NAAN cell line to Reporter3 cell line.
binder,measurement,setting,value
C12-279 Reporter3 sgRNA ; Reporter3 target (ssRNA ; dsDNA) RNA: GUAAUGCGUCUCCCAUUGACGCCUCACCUCGCGACGCAAUGAUG DNA 1: CTCACCTCGCGACGCAATGATG DNA 2: CATCATTGCGTCGCGAGGTGAG,binding signal,[1],1 fold of C12-279
same,binding signal,[2],1.27 fold of C12-279
